{"source": "a protein production outcome set (Wang et al. 2014)", "data": [{"assay": "label from the status in PepcDB records", "values": [{"sequence": "MQERIKACFTESIQTQIAAAEALPDAISRAAMTLVQSLLNGNKILCCGNGTSAANAQHFAASMINRFETERPSLPAIALNTDNVVLTAIANDRLHDEVYAKQVRALGHAGDVLLAISTRGNSRDIVKAVEAAVTRDMTIVALTGYDGGELAGLLGPQDVEIRIPSHRSARIQEMHMLTVNCLCDLIDNTLFPHQDD", "protein production": "not failed"}, {"sequence": "MQFLAPIISIVVGFLSFVLVLRTWMQFCQVSAYLPLSQSLLRLTAPMVNPVSKFIPTVKNINFAALLIALALLAVEKGVLGLPLTMAVLVGLLGIIKMFGQILFFTTLIRALMSWVTRGDHPLDEVIAQITEPVLGIIRKILPRTGMLDFSVMVLGFGLLLLNNLFYSVFGAFWAVA", "protein production": "failed"}, {"sequence": "MQFLGRSISKSIRPSLNSTARKSWVLSSQQFLSTSSTESSSRTRGGGGGNRAEKSSEEWPRPMEVPYQPKIANSIDLIGYVHQPVQFDSTLDGKFWAGTVISHEPSSDSKSESDSSSNFWIPVLFEGDLAHTANSYLKKNDRVHITGQILGDVIQSGANSDQAHVQLFKSFHGSFSHQVMVRDLHYIEGSKAMPKVLPTLDQNEGVLKHSASVQRGREFGTNLWFDLVDKPNEWCDYREMKQNGSVNPKHPDFKKKDGSQALWLNNAPTEILSELKDVKFDIPKYAKQPKAGEESWKDLVDNMNKWWDNRVDKRTPKSPDFKHKETGVGLWLSDSPSWVLEKLPPPKSKTSDIYGVQEMF", "protein production": "failed"}, {"sequence": "MQFLNQSLGFFNKGCFEPIDRNFITESYQALKPIEEIQNKYNKHDNDSFLNELRDSMVALYLDYELINIQKHGLDAKRSSSDEFLEIKQVSFQSQLIKEFEFKMKPIDSKEQELINLFNLKFGHFSWENYLA", "protein production": "failed"}, {"sequence": "MQFNPTLDSIKTYEAGKPIELVVREYGIKPQNVIKLASNENPFGASPKVIEAIAKEAVNAHRYPDDSMFELKEGLAGRFGVKSENVIIGSGSDQILEMAVHAKCNASSKVLMSKTTFAMYDVYSRQVGARILRTPSDQHHLGEFWEIYQKERPEILFLCLPNNPLGECLDREEVYDFLQKIDDETLVIVDGAYQEYAAFKDSQKRIDPKDLIERFPSSIFLGTFSKAFGLGGMRVGYGIAQPSIIQALMKMRAPFNITTLSLKAAIEALKESAYVEETIKENFKEMRRYEEFALAQGIDFIPSYTNFITLLLKNRVDSSEFSQWLLERGLIVRNLKSYGINAIRITIGRSLENDRCFELMQEYLHQF", "protein production": "failed"}, {"sequence": "MQFPSIEDLRARNTMKWTRYGQGVLPLWVAESDFSTCPAVLQAITDAVQREAFGYQPDGSLLSQATAEFYADRYGYQARPEWIFPIPDVVRGLYIAIDHFTPAQSKVIVPTPAYPPFFHLLSATQREGIFIDATGGINLHDVEKG", "protein production": "failed"}, {"sequence": "MQFSTTPTLEGLTIVEYCGVVTGEAILGANIFRDFFAGIRDIVGGRSGAYEKELRKAREIAFEELGSQARALGADAVVGIDIDYETVGQNGSMLMVSVSGTAVKTRR", "protein production": "not failed"}, {"sequence": "MQGGSSGIGYGLKYQARCISDVKADRDHTSFLTGTLSLKEENEVHLLRLSSGGSELLCEGLFSHPNEIWDLASSPFDQRIFSTVFSTGDSYGAAIWQIPEPYGQSNSSTLECVASLDAHVGKINCVLWCPSGNSDKLISMDEQNLVFWSLDSSKKSAEVLSKESAGMRHSLSGGAWNPHDVNSVAATSESSIQFWDLRTMKKNNSIERAHVRNVDYNLKREHILVSADDESGIHLWDLRKTKFPVQELPGHTHWTWAVRCNPEYEELILSVGTDSAVNLWFASASSEHKTSESPVEASRQRVNPLLNSYTDYEDSVYGLAWSSREPWIFASLSYDGRVVIESVKPFLPRR", "protein production": "not failed"}, {"sequence": "MQGISASPERMNAQQRAAHVRQVVLARGDELRRRFPLLRHQDALGAGILAFALSGMLGSALLYVTGHLAWWACLLLNAFFASLTHELEHDLIHSMYFRKQRLPHNLMLGLVWLARPSTINPWVRRHLHLNHHKVSGSESDIEERAITNGEPWGIARLLMVGDNMMAAFIRLLRAPGARRKLGILVRTLAVYAPLALLHWGAWYVFLGFHGANGVAALLGSPIQWSQDTASLMHYVDIAVVVIIGPNVLRTFCLHFVSSNMHYYGDIEPGNVIQQTQVLNPWWMWPLQAFCCNFGSTHGIHHFVVREPFYIRQMTASVAHKVMAEMGVRFNDFGTFARANRFTRQEREAMQPAHNARA", "protein production": "failed"}, {"sequence": "MQGNLTALLITAIIVLTVVCIGFLAGRDKSSRTSVEEWSVGGRRFGGLLVWFLVGADLYTAYTFLGLTSTAFTGGSVAFFAIPYSVLAYFIAYFFLPKLWKVAKIHKLTTLADYARERFNSKLLASLVAIVGVLMLIPYICLQLSGIQDTLQVAGTGYINVKFVVIISFILVALYTFFSGIKGPTYTAIIKDILVWVIMLFMVVSLPLIHFNGWTPMIDTLVKEAPQMLTIPSEGPKGIPWFITASIVSALALFMWAHAATGVFTAKSADAVRKNSMFLPLYNIVLILVIFLGFIAFLVLPEDTNPRLALLHLIQTSYGGVAQGFAYATIALASLIPCSIMAIGASNLFANNLYRDLIHPNVSQSKLTLVTRSMVFVVIGLALLFGMLFPTALVTLQLLGVSGMVQIFPAIAVSLFWKNQTKEATVIGLLAGLAVTFIVYITQSAHGIYEGFWGLAANMIAVVILNPLFVKNAGSNPVIEGLFGKKQDANPNQKGA", "protein production": "failed"}, {"sequence": "MQGWLVIPVSLAYLGVLFLIAWYGDRQTRWLANWRPWIYSLSIAVYCTSWTFYGTVGQASVNPWSFLPIYIAPILMFVFGWRVLARLILIAKREHITSLADFIAARYGKSQGLAVAVTVIAVLGILPYIALQLRGITMGLNIVAPDLMTVYGYQESHVSWFVVLALALFTMLFGTRHIDNTEHHRGMMMAIAFESIVKLVAFLCVGVFIAYLAWRTDGLELSTIAASTYQAPNWPTLLIHTLLTMIAIVCLPRQFHTMVVENERPQDLHTARWLFPVYLLLMSLFVLPIAWTGQGLLPNTSPDTFVISLPVFAGAHDIALLAFLGGTSAASGMVIVSTIALAIMVSNDLVMPLLLRRMRLSQRTHRHFSGLLVVIRRTLILLLLFGAWGFYLVLDSIPSLSAIGFLSFSAITQFAPAIFGGMYWREGNRKGVYVGLAVGFTLWLITLMSATDMLAGDASNNVLLWVITPPDWLVALGLKSADWGMLLSVTLNTLCYIGVSLVTRASLSERLQAAAFVGTPLPENENMSLYQSRVTVGELEMLASRFVGRTRVRNAFAQYWSQQRETLLPNQQASSALIRHTERVLAGVFGASSAKLVLTSALQGRKMQLEEVATIVDEASELYDFSRGLLQGAIEHIGQGIAVVDKQLRLVAWNQRYLELFEFPPGLIQVGRPIADVIRHNAQQGLCGPGDPEDHVRRRVYHLEQGTSHTSSRVRADGRVIEVQGNPMPGGGFVMSFTDITVFREAEQSLKMANETLEERVLQRTLELEKLNKQLVTATQRSERESQSKSRFLAAVSHDLMQPLNAARLFASSLSEVAKEAEVQKLAHHIESALGAAEDLISDLLDISRLESGKIDLHPHSFAIMDVLSNLNAEFSALAAKQGVQFSLVPSLLWVHSDPKLLRRVIQNFLTNAFRYNPNGKVILGVRRVATGQVRIDVWDNGIGIEQDKQQEIFEEFNRGGQVRSDQGLGLGLAISKGIAHVLGHHISMRSWPGQGSVFSITLDRAQPMPSSLTQTVAMVNEKGSELQHLRVLCVDNEPDILVGMRDLLERWGCEVKTATDIHGSLKALEGQWIPDVILSDYRLDNGRTGLEVLQQCRLRLGDCFAGVIISADRNPDILDGIESSGFRFMAKPIKPLKLRALLNSLS", "protein production": "failed"}, {"sequence": "MQHLREWLSDWFRRILPNAQAVSFAILLVVGFIVVVSLAKMLMPVFAAGIIAYLLDGLVEIGERRKLPRLVSVIVVYLLFLALLLVVFIGLLPLLYQQTLQLIEQAPSWVNRGQVLIMELPERYPDYITQEQVNDLIGAIRAELISYGQSMLTYSYASLVSLITVVVYFILVPLLVFFFLKDRDRILGWFTQYLPRDRNLSNRVWKEVDMQIGNYVRGKFVEIVILFAASFVTFSLMGLNYALLLAVLMGISVIIPYVGATLVTFPVMIVAFFQWGVSDDFWYLMLAYAIIQALDGVMLVPLLFSEVVNLHPVAIIVAILFFGGWWGFWGVFFAIPLATLVKAVLSAWPRLGEGEMPAAGGP", "protein production": "failed"}, {"sequence": "MQIRVYDEGAVQDCLFVLGWGNRCRHRTVQWLIDQLTTAYRVHAVELPTHITDYRREWVGPVQEYAADLGRFDLLGHSAGGLTAAHLDADGIGNRVYLSPWWDSDFPVPGPVLDAIASLPITKPFIPIDTLDADAIGDLATAQQLAEAPSSVSPAFLRTVFRAQRSLPPARDTAAAFCSLTDTVVDPRAVGERLPADRIRLYDGGHELFSSSGREDTAETVIDTLQHGPDAL", "protein production": "failed"}, {"sequence": "MQIVTDKNKVALYYKDIAVTYKEFILNTKKIKQFTKIKEFTNNMIYMENRPELLYSFFAIWDSRATCVCIDASSTAVELTYYIDNSDVVKIFTTKMQVEKVKGALSILSKQIEIIVVDEINLSEIKIDENSSENLVINSPEKEDTALILYTSGTTGKPKGVMLTFDLEHHHHHH", "protein production": "failed"}, {"sequence": "MQKFFQRIWQWIQQLFAPLVGGPGPGTKSLQELPPLSDTDYEFLFNQLLEGIAHGWHEGRILKFFQQLDHRCRPKQWLDWLDRFQTTVLASPSPNLVLAARMMRLGELAQSFPQIAPIGDKSQRIGRELYARQSPPQMDTVWEYDGPDLVSIDQAQGQMETFTFDELVQRLPQDAALATHFAGFLGIESTDPQVILRALMEKFAIPEEMLTEALNHGGESSSAPVDSLVEDQGTASALAQEELWPLVDPVTIDNSQFENNQEPHTAEDWLNLGIQQAQRGELETAIASWGEAISLNPQMTSAWQNRGSALGVMGKLEEALANFDEALAQNPDDAEVWLSRGLLLEAMERKEEAIPSYEKALTLEPTLPEAQERLEELQGLLSQD", "protein production": "failed"}, {"sequence": "MQKLTRINDFNEVLNSRKSVKVFDENYKIPREEMDEIITKATKAPSSVNMQPWRIAVVQSDEMKEKVKESFGFNSRQLTTSSAMLIIFGDLQNYEKAEQIYGDAVEQQLMTEDIKAQLLDWILPYYKNLSREGMKDIVNIDSSLMAMQLMLTAKAHGYDTNPIGGFDKENIADIIGYDSDRYVPVLAIAIGKKAQDAHDSVRLPIDDVREFL", "protein production": "not failed"}, {"sequence": "MQKVVLATGNVGKVRELASLLSDFGLDIVAQTDLGVDSAEETGLTFIENAILKARHAAKVTALPAIADDSGLAVDVLGGAPGIYSARYSGEDATDQKNLQKLLETMKDVPDDQRQARFHCVLVYLRHAEDPTPLVCHGSWPGVITREPAGTGGFGYDPIFFVPSEGKTAAELTREEKSAISHRGQALKLLLDALRNG", "protein production": "not failed"}, {"sequence": "MQLALVLSELGEYQVSNQWLLKIIHDLDETMYDCLYFLANNYACLGLFREATQYAEQYLTCESDGEFADDAADLLELLKLDRHDVSEEQEQLITMQERARHLLEQERFAEAIEALEAIVSRYPEFWSAHNNLALAYFYNGDVERAKQKLLEVLKRDPGNLHALCNALVFAYYLHDQEEVAALCETLASVYPFFREHQYKLGATFALVGRFDSAFRWLYRLYKNGFDGDGPFYYWLAYSAYHIGHESLARQVWETLTTLHPEKLEHHHHHH", "protein production": "failed"}, {"sequence": "MQLINLRYISNWRVLLIAVVVLLCLLLSSQLGVVKPYEIVDPLDILGEGSTLFLTILIVIFMVTDRPRGNVTNLFYSGGLLLIFSMTLDVLDEFFRYPDALRLLSWLESFPLPVGLIIISFAAAEWRRENKMLSRQLMVREKNLRSHQWVDPLTSLYTTPYFIKLVEREIALQNSTDAESTVLVSVNFKNFAQYNHEMGTKAGDELLHQASELMVLLLRPQDCLCREHSDHFLILLPQTRLSQADRLMKVIAQNLNSELELPNYMSVEVHTHRVEELSAVDAITALHTQVEEMTHYAPLAN", "protein production": "failed"}]}]}
